Assay [1] addresses T1, HA-GCN4 hAPRIL (amino acid residues 105-250) (human, UniProt O75888 105-250).
T1 construct: Bought (R&D Systems); also called HA-tagged GCN4 human APRIL; HA-GCN4-huAPRIL; not shown: N-terminal HA tag; GCN4 isoleucine zipper oligomerization domain
T1 sequence: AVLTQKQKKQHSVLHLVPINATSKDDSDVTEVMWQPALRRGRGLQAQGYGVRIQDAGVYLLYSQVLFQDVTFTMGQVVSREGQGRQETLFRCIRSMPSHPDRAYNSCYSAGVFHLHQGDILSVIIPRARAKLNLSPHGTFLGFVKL
Kind of assay: blocking ELISA, 4-parameter fit; blocked: human APRIL binding to human TACI-Fc. The procedure:
(§1) Recombinant TACI-Fc or BCMA-Fc was coated on 96 well plates in 0.1 M carbonate-bicarbonate buffer (pH 9.6), overnight at 4° C. Plates were washed three times with 1×PBST (PBS+0.025% Tween 20) followed by blocking with 1% BSA in 1×PBS, 37° C. for 1 hour. All subsequent wash steps were carried out with 1×PBST. To assess antibody blocking, either 15 ng/mL or 50 ng/mL HA-GCN4-huAPRIL was preincubated with varying antibody concentrations ranging from 0.03-30 μg/mL in binding buffer comprised of 1% BSA and 0.025% Tween-20 in 1×PBS. Preincubation was carried out at 30° C. for 1 hour with mixing. Antibody-APRIL premix with 50 ng/mL APRIL or 15 ng/mL APRIL was then added to TACI-Fc coated or BCMA-Fc coated plates, respectively, and incubated for an additional hour at 30° C. HA-tagged APRIL binding to either receptor was quantified using a goat polyclonal anti-HA tag-HRP antibody (Abcam) added at a 1:10000 dilution followed by colorimetric development using 100 μl/well of freshly prepared TMB substrate (KPL) carried out for up to 30 minutes at room temperature before quenching enzymatic reaction by the addition of 1N sulfuric acid. ELISA signal was quantified by absorbance at 450 nm. ELISA data was analyzed by non-linear regression. IC₅₀ values were calculated based on a 4 parameter fit of antibody titration curves. […] Non-blocking antibodies Aprly-1 or Aprly-5 (Enzo Biosciences) were used as negative controls. Mouse specific, blocking antibody aprily-1-1 (Adipogen) was generally used as a positive control in experiments using mouse APRIL (HA-GCN4-mAPRIL).

The target in assay [2] is T1, HA-GCN4 hAPRIL (amino acid residues …). Kind of assay: blocking ELISA; blocked: human APRIL binding to human BCMA-Fc. Details: concentration or dose not given beside the values. On the procedure: as §1
On the technique in general: ELISA stands for enzyme-linked immunosorbent assay.

For assay [3] the target is unchanged. Kind of assay: blocking ELISA; blocked: human APRIL binding to human TACI-Fc. On the set-up: concentration or dose not given beside the values. On the procedure:
as §1

Assay [4] has the same target. As to the kind of experiment: indirect ELISA on HA-GCN4 human APRIL, 3-parameter fit. On the procedure:
FIG. 5 depicts the binding of anti-APRIL antibodies to human APRIL. Relative binding of select anti-APRIL antibodies was measured by indirect ELISA. Select antibodies based on prior hybridoma screening were recombinantly produced (based on immunoglubin VH and VL gene sequencing) as described. HA-tagged GCN4 human APRIL R&D Systems was used as source of APRIL. Binding data was analyzed by non-linear regression using a three parameter fit.
(§2) Purified antibodies were further characterized for APRIL binding, APRIL species cross reactivity (human APRIL vs. mouse APRIL), and receptor blocking activity using TACI-Fc. For binding, an APRIL-based indirect ELISA was used to determine by first approximation the relative affinity of purified anti-APRIL antibodies to either human APRIL or mouse APRIL. ELISA method was as generally described above. […] Blocking and wash steps were completed as described. Binding of anti-APRIL antibodies to APRIL was quantified using an 8 point dilution of test antibody that spanned over a four log scale. Antibody binding to APRIL was detected using a rabbit anti-mouse IgG (H+L)-HRP conjugate (Jackson ImmunoResearch Laboratories). Antibody binding data was analyzed by non-linear regression analysis using a 3 parameter fit to determine max binding and apparent EC₅₀ values. […] Mouse specific antibody Apry-1-1 (Adipogen) was likewise used for quantification of antibody binding to mouse APRIL.

For assay [5] the target is unchanged. Kind of assay: blocking ELISA, 4-parameter fit; blocked: human APRIL binding to human BCMA-Fc. On the procedure: as §1
Assay [6] has the same target. Kind of assay: competition ELISA: antibody titrated against human APRIL, read-out APRIL bound to coated human TACI-Fc. The procedure: Mouse specific antibody Apry-1-1 (Adipogen) was likewise used for quantification of antibody binding to mouse APRIL.
Recombinant TACI-Fc or BCMA-Fc was coated on 96 well plates in 0.1 M carbonate-bicarbonate buffer (pH 9.6), overnight at 4° C. Plates were washed three times with 1×PBST (PBS+0.025% Tween 20) followed by blocking with 1% BSA in 1×PBS, 37° C. for 1 hour. All subsequent wash steps were carried out with 1×PBST. To assess antibody blocking, either 15 ng/mL or 50 ng/mL HA-GCN4-huAPRIL was preincubated with varying antibody concentrations ranging from 0.03-30 μg/mL in binding buffer comprised of 1% BSA and 0.025% Tween-20 in 1×PBS. Preincubation was carried out at 30° C. for 1 hour with mixing. […] HA-tagged APRIL binding to either receptor was quantified using a goat polyclonal anti-HA tag-HRP antibody (Abcam) added at a 1:10000 dilution followed by colorimetric development using 100 μl/well of freshly prepared TMB substrate (KPL) carried out for up to 30 minutes at room temperature before quenching enzymatic reaction by the addition of 1N sulfuric acid. ELISA signal was quantified by absorbance at 450 nm. ELISA data was analyzed by non-linear regression. IC₅₀ values were calculated based on a 4 parameter fit of antibody titration curves. […]

Assay [7] has the same target. As to the kind of experiment: indirect ELISA on human APRIL.
For assay [8] the target is unchanged. Kind of assay: blocking ELISA; blocked: human APRIL binding to BCMA-Fc. The procedure:
as §1
Assay is based on receptor blocking ELISA using recombinant human APRIL (R&D Systems) and either human TACI-Fc (FIG. 30A) or BCMA-Fc (FIG. 30B).

Assay [9] shares this target. As to the kind of experiment: ELISA on trimeric (GCN4-stabilised) human APRIL. From the text: APRIL trimer was stabilized by the N-terminal fusion of APRIL with an isoleucine zipper (GCN4) oligomerization domain Binding of APRIL to human TACI-Fc is shown for comparative purposes.
Assay [10] shares this target. Kind of assay: blocking ELISA; blocked: human APRIL binding to TACI-Fc.
Assay [11] has the same target. As to the kind of experiment: indirect ELISA on coated HA-GCN4 human APRIL; EC50 from non-linear regression.
Source text: as §2

The target is the same in assay [12]. Kind of assay: cell-based or functional assay.
Assay [13] deals with T2, HA-GCN4 mAPRIL (amino acid residues 96-241) (mouse, UniProt Q9D777 96-241, Assembles as a homotrimer through the GCN4 zipper; one protomer is given.).
T2 construct: Bought (R&D Systems); also called HA-tagged mouse APRIL (R&D Systems); recombinant mouse APRIL; not shown: N-terminal HA tag and GCN4 isoleucine-zipper trimerisation domain, with any linker, of the bought R&D Systems protein
T2 sequence: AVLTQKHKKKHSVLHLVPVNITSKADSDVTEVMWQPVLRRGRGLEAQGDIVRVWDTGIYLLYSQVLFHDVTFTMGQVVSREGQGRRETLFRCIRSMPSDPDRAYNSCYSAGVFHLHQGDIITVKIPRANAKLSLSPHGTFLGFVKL
Kind of assay: blocking ELISA; blocked: mouse APRIL binding to human BCMA-Fc. On the procedure: Recombinant TACI-Fc or BCMA-Fc was coated on 96 well plates in 0.1 M carbonate-bicarbonate buffer (pH 9.6), overnight at 4° C. Plates were washed three times with 1×PBST (PBS+0.025% Tween 20) followed by blocking with 1% BSA in 1×PBS, 37° C. for 1 hour. All subsequent wash steps were carried out with 1×PBST. To assess antibody blocking, either 15 ng/mL or 50 ng/mL HA-GCN4-huAPRIL was preincubated with varying antibody concentrations ranging from 0.03-30 μg/mL in binding buffer comprised of 1% BSA and 0.025% Tween-20 in 1×PBS. Preincubation was carried out at 30° C. for 1 hour with mixing. Antibody-APRIL premix with 50 ng/mL APRIL or 15 ng/mL APRIL was then added to TACI-Fc coated or BCMA-Fc coated plates, respectively, and incubated for an additional hour at 30° C. HA-tagged APRIL binding to either receptor was quantified using a goat polyclonal anti-HA tag-HRP antibody (Abcam) added at a 1:10000 dilution followed by colorimetric development using 100 μl/well of freshly prepared TMB substrate (KPL) carried out for up to 30 minutes at room temperature before quenching enzymatic reaction by the addition of 1N sulfuric acid. ELISA signal was quantified by absorbance at 450 nm. ELISA data was analyzed by non-linear regression. IC₅₀ values were calculated based on a 4 parameter fit of antibody titration curves. […]

Several values for one entry are separate records, joined by “and”; a condition that tells them apart may be missing. Equal values may be shown once.

B1: monoclonal antibody 2922 (antibody, mouse IgG2, V domains shown)
VH: QVQLHQSGPELVKPGASVKLSCKTSGYTFTSYDVFWVKQRPGQGLEWIGWIYPRDSSTKYNEKFKGKATLTVDTSSSTAYMELHSLTSEDSAVYFCAKEGYDYDKRGFDYWGQGTTLTVSS
VL: DIVLTQSPASLAVSLGQRAIISCKASQSVSFAGTNLMHWYQQRPGQQPKLLIYRASNLEPGVPTRFSGSGSRTDFTLNIHPVEEDDAATYYCQQSREYPWTFGGGTKLEIK
With B1, the IC50 is 31.6 nM in [1], 22 nM in [5] and > 10 nM in assay [6]. Besides, the “% Inhibition” value in assay [2] and in assay [3] was 97% throughout. The EC50 in assay [4] was 0.0713 µg/mL and 0.482 nM.

B2: monoclonal antibody 2419-1406 (antibody, V domains shown)
VH: QVQLVQSGAEVKKPGASVKVSCKASGYTFTDYTIHWVRQATGQGLEWMGWIYPLRGSINYAQKFQGRVTMTADKSISTVYMELSSLRSEDTAVYFCARHGAYYSNAFDYWGQGTLVTVSS
VL: EIVMTQSPATLSVSPGERATLSCRASESVDNDGIRFLHWYQQKPGQAPRLLIYRASTRATGIPARFSGSGSRTEFTLTISSLQSEDFAVYYCQQSNKDPYTFGGGTKVEIK
As to B2, the EC50 turned out to be 0.00334 nM in assay [7] and 0.0384 nM in assay [9]. Further, the results for the IC50 in assay [8] and in assay [10] were 0.11 nM and 0.24 nM, respectively. Also, the “Relative Activity (normalised to 2419)” value in [8] came out at 0.47; in assay [10], 0.88.

B3: HuTACI-Fc-001 (Fc fusion, human, UniProt O14836 29-110, looked up)
chain: VAMRSCPEEQYWDPLLGTCMSCKTICNHQSQRTCAAFCRSLSCRKEQGKFYDHLLRDCISCASICGQHPKQCAYFCENKLRS
notes: range 29-110; also called human TACI-Fc; recombinant TACI-Fc; not shown: Fc portion of human IgG1 beginning at position E98 in CH1
The molecule B3 showed an EC50 in assay [9] of 0.103 nM.

B4: monoclonal antibody 2621 (antibody, mouse IgG2, V domains shown)
VH: EVQLQQSGAELVRPGSSVKMSCKTSGYTFTSYGINWVKQRPGQGLEWIGYIYIGNGYAEYNERFKGKATLTSDTSSSTAYMQLSSLTSEDSAIYFCALYYPWFTYWGQGTLVTVSA
VL: DIQMTQSPASLSASVGDSVTITCRASENIYSYLAWYQQKQGKSPQLLVYNAKTLAEGVPSRFSGSGSGTQFSLKINSLQPEDFGNYYCQHHYDTPFTFGGGTKLEIK
As to B4, the IC50 in assay [1] was 1 nM. The “% Inhibition” value in assay [2] is 0%; in assay [3], 79%. Besides, the EC50 is 0.0143 µg/mL and 0.097 nM in [4]; < 0.2 nM in [11].

B5: monoclonal antibody 4035-062 (antibody, IgG1, V domains shown)
VH: QVQLQESGPGLVKPSETLSLTCTVSGFSLTIYDVHWVRQPPGKGLEWIGVIWSDGSTDYNPSLKSRVTISKDTSKNQVSLKLSSVTAADTAVYYCARNWVDQAWFAYWGQGTLVTVSS
VL: DIQMTQSPSSLSASVGDRVTITCRASKNIYSYLAWYQQKPGKAPKLLVYNAKTLPEGVPSRFSGSGSGTDFTLTISSLQPEDFATYYCQHHYGTPLTFGQGTKLEIK
Take B5: in [7], the EC50 worked out at 0.00128 nM. Moreover, in [8], the IC50 amounted to 0.1 nM and the “Relative Activity (normalised to 2419)” value is 0.41. Further, in assay [12], the “IC50 (inhibition of APRIL-mediated BCMA NFκB signaling)” value was ~0.38 nM and the “IC50 (inhibition of APRIL-mediated TACI NFκB signaling)” value is ~1.02 nM. In [9], this molecule gave an EC50 of 0.0135 nM. In addition, in assay [10], the IC50 stood at 0.26 nM and the “Relative Activity (normalised to 2419)” value came out at 0.93.

B6: monoclonal antibody 3125 (antibody, mouse IgG2, V domains shown)
VH: QVQLQQSGAELVRPGASVTLSCKASGYTFTDYEMHWVKQTPVHGLEWIGAIDPETGGTAYNQRFKGKAILTTDKSSITAYMELRSLTSEDSAVYYCTRWNDGDYWGQGTTLTVSS
VL: DVVMTQTPLSLSVTIGQPASISCKSSQSLLYSNGKTYLNWFQQRPGQSPKRLMYQVSKLDPGIPDRFSGSGSETDFTLKISRVEAEDLGLYYCLQGTYYPYTFGGGTKLEIK
For B6, the IC50 is 113 nM in [1] and > 10 nM in [6]. Also, the “% Inhibition” value is < 10% in [2] and 52% in assay [3]. The EC50 in [4] is 0.281 µg/mL and 1.9 nM; in assay [11], > 1 nM.

B7: monoclonal antibody 3525 (antibody, mouse IgG2, V domains shown)
VH: QVQLQQSGAELVRPGASVKLSCKASGYTFTDHEMHWVRQTPVHGLEWIGVIDPDTGDTTYNQKFKGKATLTADKSSSTAYMDLRSLTSEDSAVFYCTRWTGGDYWGHGTTLTVSS
VL: B6 VL
Turning to B7, the figures for the IC50 in assay [1] and in [5] were 4.05 nM and 0.85 nM, respectively. Besides, the results for the “% Inhibition” value in assay [2] and in assay [3] were 48% and 86%, respectively. Besides, the “IC50 (read off the curve)” value in [13] was ~0.3 mg/L. Besides, the EC50 in [4] was 0.0534 µg/mL and 0.361 nM.

The term IC50 denotes the concentration that gives 50% inhibition. Broadly, the % Inhibition is the relative decrease from the control value, in per cent. The term EC50 denotes the concentration at which the effect is half-maximal.

Values taken from patent US20170145086A1 (VISTERRA, published 2017).
